Laboratory results: patent publication US20250034594A1, “RNA-GUIDED GENOME RECOMBINEERING AT KILOBASE SCALE” (THE BOARD OF TRUSTEES OF THE LELAND STANFORD JUNIOR …, priority 2021, published 2025)

Experiments:
Format in all cases: cell-based
[1] = tested on: gene editing with Cas9 and dCas9; assay: Screen of 322 new SSAP proteins, activity across all experiments (Cas9 and dCas9, Table 5); design: scale not given here
Procedure, shortened: (§1)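 The 322 SSAP proteins were found in sequence data and then synthesized. Each was screened for gene editing activity when paired with Cas9 and with dCas9.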

gene editing with Cas9 = assay: Screen of 322 new SSAP proteins, gene editing activity with Cas9 (Table 5); design: Cas9 with SSAP activity: scale not given here
Procedure, shortened: as §1

gene editing with dCas9 = assay: Screen of 322 new SSAP proteins, gene editing activity with dCas9 (Table 5); design: dCas9 with SSAP activity: scale not given here
Procedure, shortened: as §1

Molecule	Activity across all experiments [1]	Cas9 with SSAP activity (gene editing with Cas9)	Cas9 with SSAP activity (normalized) (gene editing with Cas9)	dCas9 with SSAP activity (gene editing with dCas9)	dCas9 with SSAP activity (normalized) (gene editing with dCas9)
SSAP_143: SEQ ID NO: 312; Staphylococcus chromogenes (protein, Staphylococcus chromogenes) ANAKEFKKQMNSKNEVAETNNAPQKAKGPRQQVSDLLDRMAPEIQKALPNNMSAERMARIAMTAVSSNPKLLECDPKSFIGALMQASQIGLEPNTALGQAYLIPYGNQVQLQLSYLGLIELATRTGQYKAIYAHEVYKDDEFSYEYGLYKNLIHKPVDDPNGEPIGYYAVYHLMNGGYDFAYWTRKKVEAHAQQYSKAVQQGWNSPWKSDFNAMAKKTVLKDLLKYAPKAIEVSQAIGSDSKVSEINDEGEIIDVTDYSQEEEK	−1.198	−0.553	−1.314	−1.842	−1.900
SSAP_223: SEQ ID NO: 392; Haloactinospora alba (protein, listed as Haloactinospora alba) GQSVTNAVAQRDTSPSGMVGKYRDDFAQVMPSHVNGAGWVRIAQGILRRDAKLAEAARNAPQSLMSALMDAAQQGLTPGTTEFYLVPRKRKGSLEVQGITGYQGEIELIYRAGAVASVVAEIVHEHDTFEWIPGKHERPIHEADWFGNRGTMVGAYAYAVMNSGSTSKVVILNQHDIEKARAMSDGADSSYSPWQKWPESMWLKTAAHRLAKWVPTSAEYRHEQERARARSEDTEIPASPDSDVVHAEIVEENDDEQAT	−0.846	0.236	0.173	−1.928	−0.948
SSAP_302: SEQ ID NO: 471; Clostridium saccharobutylicum (protein, listed as Clostridium saccharobutylicum) ATNSSLKNQLIEKEQTTVNVQETMFKNLINSDDVKSKFTEVLKDKAIQYINSIINLVNSDKDLIECEPKSIIDACMSAVSLDLSVDKNLEYVEIIPYKKKANFQLGYRGYIQLLLRTGEYKSVNIIEVYEGQLKSWNQLAEEFDIDFTYKKSDAVIGYAGYFEMLNGFRKSVYWSKENMDALRENSFKSDTRWNNDYKAMAKRAVIRNMISKWGSLSIEMEKAYCEDLNTDKFVNGN	−1.394	−0.842	−0.289	−1.946	−0.772
SSAP_93: SEQ ID NO: 262; Morganella morganii (protein, listed as Morganella morganii) SNPPIAQADLQKAQGTAVKEKTKDQQLIQFINQPGMKAQLAAALPRHITPDRMIRIVTTEIRKTPSLATCDMQSFIGAVVQCSQLGLEPGNALGHAYLLPFGNGKAASGQSNVQLIIGYRGMIDLARRSGQIISISARTVREGDSFHFEYGLNEDLTHVPGENDSGPITHVYAVARLKEGGVQFEVMSFSQIEKVRDSSKAGKNGPWVSHWEEMAKKTVIRRLFKYLPVSIEMQRAVILDEKAEANVDQEHASIFEGEYETVSPE	−0.650	0.714	1.299	−2.015	−0.557
SSAP_295: SEQ ID NO: 464; Pseudoalteromonas (multispecies) (protein, listed as Pseudoalteromonas sp.) SLSLQEYQNLLYGKLTACKGQFDACLSENGYKLDFNTELNYVYQIVMSGLNVEYSFPYTPVESVITSFLKAAKIGLSLCPTEQLCFLKTEYSESSGQYVTQLGLGYKGILKLAYRSGKVKQINANVFYEKDNFQYNGVNSKVTHTTTVLSKAMRGQLAGGYCQTELIDGSFKTTVMPPEEILAIEEQGKAMGNEAWLSVHVDQMREKTLIKRHWKTLCPCIYRDSVMNDPMLFDDQDCQHSSNQQAYEEQFESAYSREAY	−2.188	−2.337	−0.343	−2.038	−0.267
SSAP_287: SEQ ID NO: 456; Leifsonia xyli subsp. xyli str. CTCB07 (protein, listed as Leifsonia xyli) AVKKNPTIEDYLIKYEPEFQRALGASMDAAKFAQDALTAIKQNPKIGHSDPRSLFGALFLAAQLKLPVGGPLAQFHLTTRTVKGNLTVVPIVGYGGYVQLIMNTGLYSRVSAFLIHAGDYFVTGANSERGEFYDFRRADSDRGEVKGVIAYAKVKGHNESSWVYIDAETMRAKHRPKYWESTPWADDAGEMFKKTGIRVLQKYLPKSVESLNVALAASADQAIVRKVDGVPDLDIQHDRDTETVAVPEQPVSVPQPGDET	−0.980	0.085	0.091	−2.044	−1.493
SSAP_276: SEQ ID NO: 445; Oceanobacillus sp. Castelsardo (protein, listed as Oceanobacillus sp.) ATNSTLKNQISNKKQGNNQVGKTQGTTMKQLLASPAVMNRFEEVLGKRANQFTASILGLYNSEKMLQKAEPMSVISSAMIAATLDLPVDKNLGYAWIVPYGGKAQFQMGYKGYIQLALRTGQYRNINVIEVYEGELKKWDRLTEEIELDFESRTSDKVIGYTGYFELINGFRKTVYWSKEDVEKHKKRFSKSDFGWKNDWDAMARKTVIRNMLNKWGILSIDMQKGMVEDSKDPVEVNEEFSSDVIDADYEVVGENEQQDFTVEENA	−2.301	−2.551	−0.452	−2.052	−0.337
SSAP_263: SEQ ID NO: 432; Gulosibacter molinativorax (protein, Gulosibacter molinativorax) TDLTEKIATKAVAVKKDPKIADLMKSYEPQFARSLGKSMDAAKFGQDALTAIKQTPKLLEADQRSLFGAIFLAAQLKLPVGGPLAQFHLTPRKVAGEMTVVPIIGYNGYIQLAMNTGLYSKVGAFTVHANDHFRTGANSERGEFYDYERATGDRGELTGVIGYAKVKGFDESSFVYLDAATVRERHRPKFWDKTPWASDEGEMFRKTAIRVLQKYLPKSIEAAPLALAAQADQATVRRVDGVDDLQIDHEDIAIAEVIEDD	−1.635	−1.201	−0.666	−2.069	−0.685
SSAP_162: SEQ ID NO: 331; Helcococcus sueciensis (protein, listed as Helcococcus sueciensis) AQAKELLENKTNNTVKKSEKQTMENLLTLMADEIKKALPENVKSERFRRIALTAFNGNKDLQQCEPTSFLAAMMQSAQLGLEPNTPLGQAYLIPYNNSKKNIKEVQFQVGYKGMLDLAHRTNQYKNIQANIVYEKDEFDIEYGLNPKLKHIPNMKEDRGQAIGYYAVYNLINGGQGFEYMTRAEVEKHAQKFSKTYRNGPWQTDFDEMAKKTVLKKVLKYAPMSTELQEATAIDERVVNEENIKSKNEDKFVDVDWSYVDDVEEDVIE	−0.900	0.273	0.278	−2.073	−1.380
SSAP_155: SEQ ID NO: 324; Staphylococcus nepalensis (protein, listed as Staphylococcus nepalensis) ATQNQFKNQLTQKKENNNQPQQKAVGPKQEISNLLDRMAPQIQKALPQHMSAERMARIAMTAVSSTPKLLECDPKSLIGALMQSSQIGLEPNTNLGQAYLIPYGKEVQLQVSYLGMIELANRSKQYKAIYAHEVYPEDYFEYQYGLQKDLIHKPADNPQSEPIGYYAVYHLLNGGYDFVYWSKAKIDDHARQFSKAVQKGWQSPWKTNFNAMAKKTVLKDLLKFAPKSIEMNNAVSSDSKAQQIDDDGNIIDVTDYSQVNDEPEQLQEGQ	−2.122	−2.139	−0.908	−2.105	−0.826
SSAP_224: SEQ ID NO: 393; Clostridium tyrobutyricum (protein, listed as Clostridium tyrobutyricum) SDKKMVVLGESHKALSKLLETKQEALPKDFNKARFLQNCMTVLQDTKDIDKCQPISVARTMLKGAFLGLDFFNRECYAIPYGGNLQFQTDYKGEIKLAKKYSFNSIKDIYAKIVREGDDFQESIEDGRQTINFKPLPFNNGEIIGAFAVCLFQDGSMLYETMTKQEIEDIRNNFSKAKNSPAWVKTPGEMYKKTVLRRLCKLIELDFDSVETKKTYDETSEFEFGSANHEVSNFDKDDSNIIEADAEIQDDVQEGDGEDE	0.449	3.010	2.232	−2.113	−0.351
SSAP_203: SEQ ID NO: 372; Oenococcus oeni (protein, listed as Oenococcus oeni) SNELKTILNAPTTKEKFDEVLGRNAQGYINSVLNAVGNSKLLQNASPNSILSGAMKAATLNLSIDPNLGYAYFVPYGHEAQLQIGYQGLIQLAQRSGQIKILNAAPIYDEQFKSLDPVTGKLTLNKKIVPDTNKKPTGYVAYLKTVTGFEHTEFMSYADIEKFAKRFSKSFNSSTSPWKTDFNAMAKKTLIKQVLKYAPMSIDLQTAVSADNDDIEPKDITPDEDKETVDKISNLISDNKQDDTLSQLEEVANANN	−2.400	−2.670	−0.476	−2.129	−0.311
SSAP_142: SEQ ID NO: 311; Roseburia intestinalis (protein, listed as Roseburia intestinalis) GDIRSELAKKAEQTQGNTKLTKSMSIADLIKAMEPEIQKALPSVITPERFTRMALSALNTTPKLQECTPMSFLAALMNAAQLGLEPNTPLGQAYLIPYKNKNVLECQFQLGYRGMIDLAYRNGHMQSIEAQAVYENDVFSYALGLHPELVHKPTLEEKGALKAFYAIFRLDNGGFRFEVMGKTYIDWYANRYSKAFTSEFSPWKSNYEGMAKKTVIKQLLKYAPLKTEFQRALSTDETIKNSLNVDMGEVLSEDIIDMPCEEVA	−0.974	0.197	0.073	−2.145	−1.216
